{"source": "patent US20170266254A1", "about": "(AILERON THERAPEUTICS, published 2017)", "note": "Bridges are numbered along the chain shown (N, C = ends). [ ]: non-standard residue; d: D form. R8 = C=CCCCCCC[C@@](C)(N)C(=O)O; S5 = C=CCCC[C@](C)(N)C(=O)O", "data": [{"target": "T1, C-terminally 6x Histidine-tagged Beta-Catenin (aa 134-668, 59 KD) (UniProt P35222 134-668)", "T1 construct": "range 134-668; Armadillo repeat region", "T1 sequence": "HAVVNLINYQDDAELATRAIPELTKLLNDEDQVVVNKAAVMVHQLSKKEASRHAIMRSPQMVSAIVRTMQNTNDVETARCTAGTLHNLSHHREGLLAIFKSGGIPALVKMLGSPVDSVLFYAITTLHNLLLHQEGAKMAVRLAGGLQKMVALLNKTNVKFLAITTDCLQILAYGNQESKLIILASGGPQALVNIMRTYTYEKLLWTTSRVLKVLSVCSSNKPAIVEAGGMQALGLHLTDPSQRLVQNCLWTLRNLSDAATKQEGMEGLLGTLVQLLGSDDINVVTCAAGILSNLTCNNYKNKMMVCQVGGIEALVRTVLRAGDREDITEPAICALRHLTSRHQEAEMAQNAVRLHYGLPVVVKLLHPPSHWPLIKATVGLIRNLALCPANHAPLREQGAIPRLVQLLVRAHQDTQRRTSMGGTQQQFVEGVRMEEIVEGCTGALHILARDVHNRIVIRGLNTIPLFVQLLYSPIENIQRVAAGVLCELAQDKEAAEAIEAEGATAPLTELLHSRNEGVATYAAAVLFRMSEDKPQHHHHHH", "assay": "competitive fluorescence polarization, FAM-labelled linear probe as competitor, His-tagged beta-catenin 134-668", "procedure,_shortened": "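FP competition in 25 mM Tris-HCl pH 7.5, 200 mM NaCl, 5 mM CHAPS, 2 mM DTT at room temperature. Competitor peptides at 40–0.7 μM 2× working range, constant DMSO. Probe (benchmark peptide with N-terminal FAM via β-Ala spacer) from 25 nM 10× stock. Read after 3 h in the dark, ex 485/em 528 nm.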", "units": {"IC50": "µM"}, "values": [{"binder": "Ac-NL[S5]NVK[S5]SLVNQS-NH2 (staple 3-7; SMILES CC(=O)N[C@@H](CC(N)=O)C(=O)N[C@@H](CC(C)C)C(=O)N[C@@]1(C)CCCC=CCCC[C@@](C)(C(=O)N[C@@H](CO)C(=O)N[C@@H](CC(C)C)C(=O)N[C@H](C(=O)N[C@@H](CC(N)=O)C(=O)N[C@@H](CCC(N)=O)C(=O)N[C@@H](CO)C(N)=O)C(C)C)NC(=O)[C@H](CCCCN)NC(=O)[C@H](C(C)C)NC(=O)[C@H](CC(N)=O)NC1=O, also called Ac-NL$NVK$SLVNQS-NH2)", "note": "[SP1]", "IC50": "≥ 100"}, {"binder": "Ac-SA[S5]RNL[S5]DVKSSLV-NH2 (staple 3-7; SMILES CC(=O)N[C@@H](CO)C(=O)N[C@@H](C)C(=O)N[C@@]1(C)CCCC=CCCC[C@@](C)(C(=O)N[C@@H](CC(=O)O)C(=O)N[C@H](C(=O)N[C@@H](CCCCN)C(=O)N[C@@H](CO)C(=O)N[C@@H](CO)C(=O)N[C@@H](CC(C)C)C(=O)N[C@H](C(N)=O)C(C)C)C(C)C)NC(=O)[C@H](CC(C)C)NC(=O)[C@H](CC(N)=O)NC(=O)[C@H](CCCNC(=N)N)NC1=O, also called Ac-SA$RNL$DVKSSLV-NH2)", "note": "[SP42]", "IC50": "≥ 100"}, {"binder": "Ac-LGANDELISFK[R8]EGEQEE[S5]SSN-NH2 (staple 12-19; SMILES CC[C@H](C)[C@H](NC(=O)[C@H](CC(C)C)NC(=O)[C@H](CCC(=O)O)NC(=O)[C@H](CC(=O)O)NC(=O)[C@H](CC(N)=O)NC(=O)[C@H](C)NC(=O)CNC(=O)[C@H](CC(C)C)NC(C)=O)C(=O)N[C@@H](CO)C(=O)N[C@@H](Cc1ccccc1)C(=O)N[C@@H](CCCCN)C(=O)N[C@]1(C)CCCCCCC=CCCC[C@@](C)(C(=O)N[C@@H](CO)C(=O)N[C@@H](CO)C(=O)N[C@@H](CC(N)=O)C(N)=O)NC(=O)[C@H](CCC(=O)O)NC(=O)[C@H](CCC(=O)O)NC(=O)[C@H](CCC(N)=O)NC(=O)[C@H](CCC(=O)O)NC(=O)CNC(=O)[C@H](CCC(=O)O)NC1=O)", "note": "[SP21]", "IC50": 23.9}, {"binder": "Ac-LGANDELISF[S5]DQG[S5]QQEKSSN-NH2 (staple 11-15; SMILES CC[C@H](C)[C@H](NC(=O)[C@H](CC(C)C)NC(=O)[C@H](CCC(=O)O)NC(=O)[C@H](CC(=O)O)NC(=O)[C@H](CC(N)=O)NC(=O)[C@H](C)NC(=O)CNC(=O)[C@H](CC(C)C)NC(C)=O)C(=O)N[C@@H](CO)C(=O)N[C@@H](Cc1ccccc1)C(=O)N[C@@]1(C)CCCC=CCCC[C@@](C)(C(=O)N[C@@H](CCC(N)=O)C(=O)N[C@@H](CCC(N)=O)C(=O)N[C@@H](CCC(=O)O)C(=O)N[C@@H](CCCCN)C(=O)N[C@@H](CO)C(=O)N[C@@H](CO)C(=O)N[C@@H](CC(N)=O)C(N)=O)NC(=O)CNC(=O)[C@H](CCC(N)=O)NC(=O)[C@H](CC(=O)O)NC1=O)", "note": "[SP44]", "IC50": 3.75}, {"binder": "Ac-LGANDELISF[S5]DQG[S5]QEEKSSN-NH2 (staple 11-15; SMILES CC[C@H](C)[C@H](NC(=O)[C@H](CC(C)C)NC(=O)[C@H](CCC(=O)O)NC(=O)[C@H](CC(=O)O)NC(=O)[C@H](CC(N)=O)NC(=O)[C@H](C)NC(=O)CNC(=O)[C@H](CC(C)C)NC(C)=O)C(=O)N[C@@H](CO)C(=O)N[C@@H](Cc1ccccc1)C(=O)N[C@@]1(C)CCCC=CCCC[C@@](C)(C(=O)N[C@@H](CCC(N)=O)C(=O)N[C@@H](CCC(=O)O)C(=O)N[C@@H](CCC(=O)O)C(=O)N[C@@H](CCCCN)C(=O)N[C@@H](CO)C(=O)N[C@@H](CO)C(=O)N[C@@H](CC(N)=O)C(N)=O)NC(=O)CNC(=O)[C@H](CCC(N)=O)NC(=O)[C@H](CC(=O)O)NC1=O)", "note": "[SP39]", "IC50": 3.08}, {"binder": "Ac-LGANDQLISF[S5]DEG[S5]QEEKSSN-NH2 (staple 11-15; SMILES CC[C@H](C)[C@H](NC(=O)[C@H](CC(C)C)NC(=O)[C@H](CCC(N)=O)NC(=O)[C@H](CC(=O)O)NC(=O)[C@H](CC(N)=O)NC(=O)[C@H](C)NC(=O)CNC(=O)[C@H](CC(C)C)NC(C)=O)C(=O)N[C@@H](CO)C(=O)N[C@@H](Cc1ccccc1)C(=O)N[C@@]1(C)CCCC=CCCC[C@@](C)(C(=O)N[C@@H](CCC(N)=O)C(=O)N[C@@H](CCC(=O)O)C(=O)N[C@@H](CCC(=O)O)C(=O)N[C@@H](CCCCN)C(=O)N[C@@H](CO)C(=O)N[C@@H](CO)C(=O)N[C@@H](CC(N)=O)C(N)=O)NC(=O)CNC(=O)[C@H](CCC(=O)O)NC(=O)[C@H](CC(=O)O)NC1=O)", "note": "[SP53]", "IC50": 24.4}, {"binder": "Ac-LGANDELISF[S5]DEG[S5]QEQKSSN-NH2 (staple 11-15; SMILES CC[C@H](C)[C@H](NC(=O)[C@H](CC(C)C)NC(=O)[C@H](CCC(=O)O)NC(=O)[C@H](CC(=O)O)NC(=O)[C@H](CC(N)=O)NC(=O)[C@H](C)NC(=O)CNC(=O)[C@H](CC(C)C)NC(C)=O)C(=O)N[C@@H](CO)C(=O)N[C@@H](Cc1ccccc1)C(=O)N[C@@]1(C)CCCC=CCCC[C@@](C)(C(=O)N[C@@H](CCC(N)=O)C(=O)N[C@@H](CCC(=O)O)C(=O)N[C@@H](CCC(N)=O)C(=O)N[C@@H](CCCCN)C(=O)N[C@@H](CO)C(=O)N[C@@H](CO)C(=O)N[C@@H](CC(N)=O)C(N)=O)NC(=O)CNC(=O)[C@H](CCC(=O)O)NC(=O)[C@H](CC(=O)O)NC1=O)", "note": "[SP41]", "IC50": 19.5}, {"binder": "Ac-LGANDELISF[S5]DEG[S5]QQEKSSN-NH2 (staple 11-15; SMILES CC[C@H](C)[C@H](NC(=O)[C@H](CC(C)C)NC(=O)[C@H](CCC(=O)O)NC(=O)[C@H](CC(=O)O)NC(=O)[C@H](CC(N)=O)NC(=O)[C@H](C)NC(=O)CNC(=O)[C@H](CC(C)C)NC(C)=O)C(=O)N[C@@H](CO)C(=O)N[C@@H](Cc1ccccc1)C(=O)N[C@@]1(C)CCCC=CCCC[C@@](C)(C(=O)N[C@@H](CCC(N)=O)C(=O)N[C@@H](CCC(N)=O)C(=O)N[C@@H](CCC(=O)O)C(=O)N[C@@H](CCCCN)C(=O)N[C@@H](CO)C(=O)N[C@@H](CO)C(=O)N[C@@H](CC(N)=O)C(N)=O)NC(=O)CNC(=O)[C@H](CCC(=O)O)NC(=O)[C@H](CC(=O)O)NC1=O)", "note": "[SP40]", "IC50": 6.63}, {"binder": "Ac-LGANDELISF[S5]DQG[S5]QEQKSSN-NH2 (staple 11-15; SMILES CC[C@H](C)[C@H](NC(=O)[C@H](CC(C)C)NC(=O)[C@H](CCC(=O)O)NC(=O)[C@H](CC(=O)O)NC(=O)[C@H](CC(N)=O)NC(=O)[C@H](C)NC(=O)CNC(=O)[C@H](CC(C)C)NC(C)=O)C(=O)N[C@@H](CO)C(=O)N[C@@H](Cc1ccccc1)C(=O)N[C@@]1(C)CCCC=CCCC[C@@](C)(C(=O)N[C@@H](CCC(N)=O)C(=O)N[C@@H](CCC(=O)O)C(=O)N[C@@H](CCC(N)=O)C(=O)N[C@@H](CCCCN)C(=O)N[C@@H](CO)C(=O)N[C@@H](CO)C(=O)N[C@@H](CC(N)=O)C(N)=O)NC(=O)CNC(=O)[C@H](CCC(N)=O)NC(=O)[C@H](CC(=O)O)NC1=O)", "note": "[SP45]", "IC50": 10.9}, {"binder": "Ac-LGANDELISF[S5]DEG[S5]QQQKSSN-NH2 (staple 11-15; SMILES CC[C@H](C)[C@H](NC(=O)[C@H](CC(C)C)NC(=O)[C@H](CCC(=O)O)NC(=O)[C@H](CC(=O)O)NC(=O)[C@H](CC(N)=O)NC(=O)[C@H](C)NC(=O)CNC(=O)[C@H](CC(C)C)NC(C)=O)C(=O)N[C@@H](CO)C(=O)N[C@@H](Cc1ccccc1)C(=O)N[C@@]1(C)CCCC=CCCC[C@@](C)(C(=O)N[C@@H](CCC(N)=O)C(=O)N[C@@H](CCC(N)=O)C(=O)N[C@@H](CCC(N)=O)C(=O)N[C@@H](CCCCN)C(=O)N[C@@H](CO)C(=O)N[C@@H](CO)C(=O)N[C@@H](CC(N)=O)C(N)=O)NC(=O)CNC(=O)[C@H](CCC(=O)O)NC(=O)[C@H](CC(=O)O)NC1=O)", "note": "[SP46]", "IC50": 23.7}, {"binder": "Ac-VERGLANVK[S5]SLV[S5]ES-NH2 (staple 10-14; SMILES CC(=O)N[C@H](C(=O)N[C@@H](CCC(=O)O)C(=O)N[C@@H](CCCNC(=N)N)C(=O)NCC(=O)N[C@@H](CC(C)C)C(=O)N[C@@H](C)C(=O)N[C@@H](CC(N)=O)C(=O)N[C@H](C(=O)N[C@@H](CCCCN)C(=O)N[C@@]1(C)CCCC=CCCC[C@@](C)(C(=O)N[C@@H](CCC(=O)O)C(=O)N[C@@H](CO)C(N)=O)NC(=O)[C@H](C(C)C)NC(=O)[C@H](CC(C)C)NC(=O)[C@H](CO)NC1=O)C(C)C)C(C)C)", "note": "[SP36]", "IC50": "≥ 100"}, {"binder": "Ac-RNLA[S5]VKS[S5]LVNES-NH2 (staple 5-9; SMILES CC(=O)N[C@@H](CCCNC(=N)N)C(=O)N[C@@H](CC(N)=O)C(=O)N[C@@H](CC(C)C)C(=O)N[C@@H](C)C(=O)N[C@@]1(C)CCCC=CCCC[C@@](C)(C(=O)N[C@@H](CC(C)C)C(=O)N[C@H](C(=O)N[C@@H](CC(N)=O)C(=O)N[C@@H](CCC(=O)O)C(=O)N[C@@H](CO)C(N)=O)C(C)C)NC(=O)[C@H](CO)NC(=O)[C@H](CCCCN)NC(=O)[C@H](C(C)C)NC1=O, also called Ac-RNLA$VKS$LVNES-NH2)", "note": "[SP3]", "IC50": "≥ 100"}]}]}
